# Data published in PMC7049697.
# T1: Rap1-DBD (Saccharomyces cerevisiae, UniProt P11938 358-601)
# T1 sequence: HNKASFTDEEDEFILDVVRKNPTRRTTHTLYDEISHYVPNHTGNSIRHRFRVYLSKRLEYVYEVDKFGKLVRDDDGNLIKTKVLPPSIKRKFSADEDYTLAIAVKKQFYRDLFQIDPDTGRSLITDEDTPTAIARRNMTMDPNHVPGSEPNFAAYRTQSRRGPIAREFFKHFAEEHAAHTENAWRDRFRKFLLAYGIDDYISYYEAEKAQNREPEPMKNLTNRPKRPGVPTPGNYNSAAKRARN
# T2: Rap1-DBD P520L (Saccharomyces cerevisiae, UniProt P11938 358-601, P520L)
# T2 sequence: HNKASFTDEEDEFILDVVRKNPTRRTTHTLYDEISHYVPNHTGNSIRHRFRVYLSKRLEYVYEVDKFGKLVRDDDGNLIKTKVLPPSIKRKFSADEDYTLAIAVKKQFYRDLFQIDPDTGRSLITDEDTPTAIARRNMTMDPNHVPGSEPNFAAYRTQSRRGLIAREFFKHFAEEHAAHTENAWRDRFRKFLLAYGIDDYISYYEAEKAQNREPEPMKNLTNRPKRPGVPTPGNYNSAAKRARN
# What was measured:
# Rap1-DBD = molecular target: T1, Rap1-DBD; assay: EMSA
# Rap1-DBD P520L = molecular target: T2, Rap1-DBD P520L; assay: EMSA
binder,measurement,setting,value
21 bp telomeric Rap1 site dsDNA (dsDNA) DNA 1: CCGCACACCCACACACCAGTG DNA 2: CACTGGTGTGTGGGTGTGCGG,binding result,Rap1-DBD,binds
same,binding result,Rap1-DBD P520L,binds
